Measured values taken from patent US20050026233A1, “Methods of monitoring and modulating LKB1 activity and its downstream targets” (Medical Research Council, priority 2003, published 2005).

Legend:
AMPK (α1β1γ1) = biological target: T1, AMPK (α1β1γ1) (Rattus norvegicus, UniProt P54645); experiment: Activation of bacterially expressed AMPK by upstream kinase, SAMS peptide assay; format: biochemical, mammalian; settings: recombinant AMPK α1β1γ1, MgATP, 30 min at 30° C
T1 construct: made in house; host or cells: bacteria (E. coli per the title of Neumann 2003)
Description: FIG. 4. Tos3p and LKB1 phosphorylate and activate AMPK in vitro. (A) Bacterially expressed AMPK (α1β1γ1 (Neumann, 2003)) was incubated with MgATP and GST-kinase bound to glutathione-Sepharose for 30 min at 30° C. Following centrifugation to remove the resin, AMPK activity in the supernatant was measured using the SAMS peptide assay (Davies, 1989).
The beads were removed by centrifugation, and proteins in the supernatant were analyzed by SDS-PAGE and autoradiography. Molecular size markers (kDa) are indicated. (C) Bacterially expressed AMPK (0.15 μg) was phosphorylated by GST-Tos3p and analysed by immunoblotting with anti-phosphothreonine 172 specific antibody (Cell Signalling Technologies). […]
Recombinant AMPK (α1β1γ1) expressed in bacteria (Neumann, 2003) was incubated with each of the kinases and MgATP, and AMPK activity was determined using the SAMS peptide assay. […]
Following centrifugation to remove the resin, AMPK activity in the supernatant was measured using the SAMS peptide assay (Davies, 1989).
Bacterially expressed AMPK (α1β1γ1) was purified by chromatography using Ni-NTA agarose (Qiagen) as previously described (the purification is as in Neumann et al., 2003 Protein Expression and Purification, incorporated herein by reference). […] Following brief centrifugation, the supernatant containing AMPK was removed and activity measured using the SAMS peptide assay (Davies et al., 1989). […]

AMPK = experiment: Phosphorylation of T172 of AMPK by immunoblotting with anti-phosphothreonine 172 antibody; format: biochemical, mammalian; settings: immunoblot
Description: The beads were removed by centrifugation, and proteins in the supernatant were analyzed by SDS-PAGE and autoradiography. Molecular size markers (kDa) are indicated. (C) Bacterially expressed AMPK (0.15 μg) was phosphorylated by GST-Tos3p and analysed by immunoblotting with anti-phosphothreonine 172 specific antibody (Cell Signalling Technologies). AMPK was also incubated with GST or partially purified rat liver AMPKK (Hawley, 1996).
Phosphorylation of T172 was determined by immunoblotting (FIG. 4E).
Bacterially expressed AMPK (α1β1γ1) was purified by chromatography using Ni-NTA agarose (Qiagen) as previously described (the purification is as in Neumann et al., 2003 Protein Expression and Purification, incorporated herein by reference). AMPK was incubated with 100 μM ATP, 5 mM MgCl2, 200 μM AMP and 1 mM DTT in 50 mM Hepes, pH 7.4 in the presence or absence of upstream kinase for 30 min at 30° C. Following brief centrifugation, the supernatant containing AMPK was removed and activity measured using the SAMS peptide assay (Davies et al., 1989). Phosphorylation of T172 was determined by Western blotting using an antibody that specifically recognizes phospho-threonine 172 within the α subunit of AMPK (Cell Signaling Technologies).

T1 sequence (P54645 13-559 limits assumed): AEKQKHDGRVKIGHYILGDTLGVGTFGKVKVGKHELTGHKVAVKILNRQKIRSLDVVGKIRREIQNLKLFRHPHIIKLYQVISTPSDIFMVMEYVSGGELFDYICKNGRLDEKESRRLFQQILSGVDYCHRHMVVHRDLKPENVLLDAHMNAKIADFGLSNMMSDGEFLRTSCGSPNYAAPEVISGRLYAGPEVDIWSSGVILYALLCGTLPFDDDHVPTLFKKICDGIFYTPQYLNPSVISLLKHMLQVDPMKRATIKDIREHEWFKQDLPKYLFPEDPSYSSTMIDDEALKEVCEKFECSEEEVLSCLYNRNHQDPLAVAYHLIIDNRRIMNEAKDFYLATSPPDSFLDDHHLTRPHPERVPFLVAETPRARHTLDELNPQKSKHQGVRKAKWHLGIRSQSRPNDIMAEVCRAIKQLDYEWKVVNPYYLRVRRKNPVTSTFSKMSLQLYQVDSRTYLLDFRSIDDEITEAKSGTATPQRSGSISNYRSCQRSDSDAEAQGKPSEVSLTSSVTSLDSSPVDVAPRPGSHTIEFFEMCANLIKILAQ
T1 sequence (P80386 whole entry partner): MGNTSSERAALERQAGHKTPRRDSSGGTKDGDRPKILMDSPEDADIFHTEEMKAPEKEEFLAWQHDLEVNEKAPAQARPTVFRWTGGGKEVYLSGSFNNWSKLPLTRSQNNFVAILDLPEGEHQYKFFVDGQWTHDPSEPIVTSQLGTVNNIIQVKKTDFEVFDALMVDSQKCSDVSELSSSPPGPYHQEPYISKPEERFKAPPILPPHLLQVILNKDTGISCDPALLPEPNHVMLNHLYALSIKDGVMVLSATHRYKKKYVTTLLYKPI
T1 sequence (P80385 whole entry partner): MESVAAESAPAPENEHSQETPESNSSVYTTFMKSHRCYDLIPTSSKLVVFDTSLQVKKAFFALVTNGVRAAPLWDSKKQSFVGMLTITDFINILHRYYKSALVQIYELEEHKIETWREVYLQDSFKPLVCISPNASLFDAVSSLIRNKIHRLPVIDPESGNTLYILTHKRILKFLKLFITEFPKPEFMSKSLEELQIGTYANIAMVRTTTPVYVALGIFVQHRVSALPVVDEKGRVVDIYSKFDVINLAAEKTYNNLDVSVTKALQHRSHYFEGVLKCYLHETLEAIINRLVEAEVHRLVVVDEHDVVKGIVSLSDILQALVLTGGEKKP
Chain of AMPK (P54645 13-559 limits assumed): as the sequence (P54645 13-559 limits assumed) above
Chain of AMPK (P80386 whole entry partner): as the sequence (P80386 whole entry partner) above
Chain of AMPK (P80385 whole entry partner): as the sequence (P80385 whole entry partner) above

AMPK activity after incubation with upstream kinase (AMPK (α1β1γ1)): activated recombinant AMPK
B1: LKB1: FLAG-tagged full length wild-type mouse LKB1 tumor suppressor kinase purified from COS7 cell lysates (protein, UniProt Q9WTK7 1-436, looked up)
chain: MDVADPEPLGLFSEGELMSVGMDTFIHRIDSTEVIYQPRRKRAKLIGKYLMGDLLGEGSYGKVKEVLDSETLCRRAVKILKKKKLRRIPNGEANVKKEIQLLRRLRHRNVIQLVDVLYNEEKQKMYMVMEYCVCGMQEMLDSVPEKRFPVCQAHGYFRQLIDGLEYLHSQGIVHKDIKPGNLLLTTNGTLKISDLGVAEALHPFAVDDTCRTSQGSPAFQPPEIANGLDTFSGFKVDIWSAGVTLYNITTGLYPFEGDNIYKLFENIGRGDFTIPCDCGPPLSDLLRGMLEYEPAKRFSIRQIRQHSWFRKKHPLAEALVPIPPSPDTKDRWRSMTVVPYLEDLHGRAEEEEEEDLFDIEDGIIYTQDFTVPGQVLEEEVGQNGQSHSLPKAVCVNGTEPQLSSKVKPEGRPGTANPARKVCSSNKIRRLSACKQQ
modifications: full-length FLAG tag
notes: FLAG-tagged full length wild-type mouse LKB1 tumor suppressor kinase purified from COS7 cell lysates
Phosphorylation of AMPK on T172 (AMPK): phosphorylated T172
